Target: SNAP-25 (endogenous, human induced neurons) (human) (UniProt P60880)
Assay: cell-based or functional assay

Sequence of SNAP-25 (endogenous, human induced neurons) (human) (P60880 whole entry): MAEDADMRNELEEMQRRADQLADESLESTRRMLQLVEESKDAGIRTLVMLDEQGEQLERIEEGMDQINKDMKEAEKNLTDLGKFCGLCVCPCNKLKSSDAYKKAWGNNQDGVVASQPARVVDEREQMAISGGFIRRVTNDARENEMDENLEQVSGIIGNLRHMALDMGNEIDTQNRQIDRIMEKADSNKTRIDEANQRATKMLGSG

SNAP-25 degradation half-life, cycloheximide chase in iNs: 12.5 h | SNAP-25 half-life after L1 or Dfx treatment against control, cycloheximide chase in ANCL iNs: 2 fold
Substance: endogenous CSPα of ANCL patient-derived induced neurons (iNs), which co-express the CSPα^WT and CSPα^L116Δ alleles (from UniProt Q9H3Z4 1-198; Q9H3Z4 1-198)

Source: US20210290602A1
